Source: paper PMC3042367 (Biochemistry, 2010)

Target: R831b MerB (organomercurial lyase), unliganded (Serratia marcescens (plasmid R831b), UniProt P77072 1-212)
Experiment: stopped-flow fluorescence kinetics

Chain of R831b MerB (organomercurial lyase), unliganded (P77072 whole entry): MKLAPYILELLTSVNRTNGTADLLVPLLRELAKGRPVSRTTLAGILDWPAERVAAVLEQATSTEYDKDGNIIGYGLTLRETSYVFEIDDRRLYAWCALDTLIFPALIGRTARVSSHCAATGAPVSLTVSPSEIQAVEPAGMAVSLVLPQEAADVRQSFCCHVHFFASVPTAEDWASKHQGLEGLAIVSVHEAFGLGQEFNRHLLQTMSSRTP

B1: HgNmerA, 1:1 Hg(II) complex of pDU1358 NmerA (domain or fragment, Serratia marcescens (plasmid pDU1358), UniProt P08662 1-69, looked up)
chain: MTHLKITGMTCDSCAAHVKEALEKVPGVQSAIVSYAKGAAQLALDPGTAPDALTAAVAGLGYKAMLADA
modifications: also: 1:1 Hg(II) complex bound to Cys11 and Cys14 (CXXC motif)
- Kd: 660 µM
- koff: 330 s⁻¹
- kon: 500000 M⁻¹ s⁻¹
